Assay results published in patent publication US20090325290A1 (published 2009).

T1: human MHC class II DR protein (DRA*0101/DRB1*0401), purified from PRIESS cells (human, UniProt P01903 26-254; P01911 30-266, limits assumed)
T1 construct: mature; 'mature' is my reading; also called HLA-DR protein; MHCII
T1 MHC II alpha: not shown
T1 MHC II beta: not shown


Key:
bovine serum albumine = target: T2, bovine serum albumine (bovine, UniProt P02769 25-607); test: ELISA, antigen coated at 10 µg/well
T2 construct: negative control protein; also called BSA
Method: (§1) After washing in PBS the anti-human IgG F(ab)₂-peroxidase-conjugate at a 1:10,000 dilution in TBS (supplemented with 5% w/v non-fat dry-milk/0.05% v/v Tween 20) was added to each well for 1 h. Final washes were carried out in PBS followed the addition the substrate POD (Roche). Color-development was read at 370 nm in an ELISA-Reader.

human apotransferrin = target: T3, human apotransferrin (human, UniProt P02787 20-698); test: ELISA, antigen coated at 10 µg/well
T3 construct: negative control protein
Method: as §1

[1] = target: human-mouse chimeric molecule DR-IE (human; mouse); test: cell-based or functional assay
[2] = target: T1, human MHC class II DR protein …; test: SPR (BIAcore), Fab, 3 chips (500, 4000, 3000RU)
[3] = target: T4, HLA-DR on the human B-lymphoblastoid cell line LG-2 (human); test: FACS on LG-2 cells, competitor 1-1C4
T4 construct: whole, on cells; also called DR-expressing cell line (LG-2)
Method: Subsequently murine antibodies were added and the murine antibodies were detected.
The whole staining procedure was performed on ice. 1×10⁷ cells of the human B-lymphoblastoid cell line LG-2 was preblocked for 20 min. in PBS containing 2% FCS and 35 μg/ml Guinea Pig IgG (“FACS-Buffer”). […] Subsequently, 4 ml of PBS were added to each vial, the vials were centrifuged at 300×g for 8 min, and the cell pellet resuspended in 50 μl FACS buffer containing a 1 to 25 dilution of a goat-anti-murine Ig-FITC conjugate at 20 μg/ml final concentration (BD Pharmingen, Torrey Pines, Calif., USA). Cells were incubated light-protected for 30 min. Afterwards, cells were washed with 4 ml PBS, centrifuged as above and resuspended in 500 μl PBS for analysis in the flow cytometer (FACS Calibur, BD Immunocytometry Systems, San Jose, Calif., USA).

[4] = target: human-mouse chimeric molecule DR-IE (human; mouse); test: cell-based or functional assay; remark: listed apart in the source
[5] = target: HLA-DR antigen on the surface of HLA-DR positive cells (tumor cell lines other than PRIESS and LG-2, normal B … (human)); test: cell-based or functional assay
[6] = target: T4, HLA-DR on the human B-lymphoblastoid …; test: cell-based or functional assay
[7] = target: T1, human MHC class II DR protein …; test: BiaCore, IgG4
Method: The affinities for anti-HLA antibody fragments of the invention were measured as follows. All measurements were conducted in HBS buffer (20 mM HEPES, 150 mM NaCl, pH 7.4) at a flow rate of 20 μl/min at 25° C. on a BIAcore3000 instrument (Biacore AB, Sweden). MHC class II DR protein (prepared as example 1) was diluted in 100 mM sodium acetate pH 4.5 to a concentration of […], and coupled to a CM5 chip (Biacore AB) using standard EDC-NHS coupling chemistry with subsequent ethanolamine treatment as manufacturers directions. The coating density of MHCII was adjusted to between 500 and 4000 RU. Affinities were measured by injection of 5 different concentrations of the different antibodies and using the standard software of the Biacore instrument. Regeneration of the coupled surface was achieved using 10 mM glycine pH 2.3 and 7.5 mM NaOH.

[8] = target: T4, HLA-DR on the human B-lymphoblastoid …; test: cell-based or functional assay; remark: listed apart in the source

| Binder | binding result (bovine serum albumine) | binding result (human apotransferrin) | IC50, inhibition of IL-2 secretion of T-Hyb 1 cells [1] | Maximum inhibition(%) of IL-2 secretion [1] [%] | Kd [2] [nM] | kon [2] [M⁻¹ s⁻¹] | reduction of mean fluorescence intensity of the murine antibody [3] [%] | IC50 for inhibition of T cell proliferation [4] [nM] | EC50 of cell killing, IgG form [5] [nM] | EC50 of cell killing, LG2, IgG4 [6] [nM] | kon [7] [M⁻¹ s⁻¹] | % killing of LG-2 cells, 50 nM, 4 h [8] [%] | EC50 of cell killing, LG2, cross-linked Fab as bivalent agent [6] [nM] |
| --- | --- | --- | --- | --- | --- | --- | --- | --- | --- | --- | --- | --- | --- |
| MS-GPC-8-6 (Fab form) (Fab, V domains shown, Fab: VH-CH1-FLAG-STREP tag II) VH: QVQLKESGPALVKPTQTLTLTCTFSGFSLSTSGVGVGWIRQPPGKALEWLALIDWDDDKYYSTSLKTRLTISKDTSKNQVVLTMTNMDPVDTATYYCARSPRYRGAFDYWGQGTLVTVSS VL: DIVLTQPPSVSGAPGQRVTISCSGSSSNIGSNYVSWYQQLPGTAPKLLIYDNNQRPSGVPDRFSGSKSGTSASLAITGLQSEDEADYYCQSYDYDHYVFGGGTKLTVLG | no binding (tested: 100 ng/well) | no binding (tested: 100 ng/well) | 20 nM ((Fab)/2) | 100 | 8 | 120000 | – | – | – | – | – | – | – |
| MS-GPC-8-10-57 (IgG4 form) (antibody, V domains shown, Human IgG4 (constant region EMBL K01316), lambda constant region (EMBL M18645), from CHO-K1 cells; also called 1C7277) VH: QVQLKESGPALVKPTQTLTLTCTFSGFSLSTSGVGVGWIRQPPGKALEWLALIDWDDDKYYSTSLKTRLTISKDTSKNQVVLTMTNMDPVDTATYYCARSPRYRGAFDYWGQGTLVTVSS VL: DIVLTQPPSVSGAPGQRVTISCSGSESNIGNNYVQWYQQLPGTAPKLLIYDNNQRPSGVPDRFSGSKSGTSASLAITGLQSEDEADYYCQSYDLIRHVFGGGTKLTVLG | – | – | 0.31 nM | 100 | – | – | > 90 | 11 | 1.2 | 1 | 11000 | 88 | – |
| MS-GPC-8-10-57 (Fab form) (Fab, V domains shown, Fab: VH-CH1-FLAG-STREP tag II; also called 1C7277) VH: QVQLKESGPALVKPTQTLTLTCTFSGFSLSTSGVGVGWIRQPPGKALEWLALIDWDDDKYYSTSLKTRLTISKDTSKNQVVLTMTNMDPVDTATYYCARSPRYRGAFDYWGQGTLVTVSS VL: DIVLTQPPSVSGAPGQRVTISCSGSESNIGNNYVQWYQQLPGTAPKLLIYDNNQRPSGVPDRFSGSKSGTSASLAITGLQSEDEADYYCQSYDLIRHVFGGGTKLTVLG | – | no binding (tested: 100 ng/well) | 2.9 nM ((Fab)/2) | 100 | – | – | > 90 | – | – | – | – | – | 7.2 |
| MS-GPC-8-27-41 (IgG4 form) (antibody, V domains shown, Human IgG4 (constant region EMBL K01316), lambda constant region (EMBL M18645), from CHO-K1 cells; also called 1D09C3) VH: QVQLKESGPALVKPTQTLTLTCTFSGFSLSTSGVGVGWIRQPPGKALEWLALIDWDDDKYYSTSLKTRLTISKDTSKNQVVLTMTNMDPVDTATYYCARSPRYRGAFDYWGQGTLVTVSS VL: DIVLTQPPSVSGAPGQRVTISCSGSESNIGNNYVQWYQQLPGTAPKLLIYDNNQRPSGVPDRFSGSKSGTSASLAITGLQSEDEADYYCQSYDMNVHVFGGGTKLTVLG | – | – | 0.28 nM | 100 | – | – | > 90 | 20 | 1.2 | 1.23 | 71000 | 87 | – |
